Measured values reported in the supplement of paper PMC12764529.
± gives the half width of the 95% confidence interval.

How the values were obtained:
[1] = folding stability dG unfold (combined trypsin and chymotrypsin); higher = more stable
Outline: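 K50 was inferred by Bayesian fitting of sequencing counts obtained after protease digestion of designed mini-proteins. Unfolding free energy was derived by comparison with a sequence-predicted unfolded-state K50 and a shared folded-state K50, for each protease or both combined. The mini-proteins were under 80 residues, had no cysteine, were carried in a PA-tagged cDNA display construct, and were kept only if AlphaFold2 dimer inter-PAE exceeded 15.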

[2] = folding stability dG unfold from trypsin proteolysis; higher = more stable
Description: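 Folding stability of de novo designed mini-proteins (<80 aa, no Cys; designed by TrROS, TrMRF, ProteinMPNN and the joint model) was measured by cDNA display proteolysis with trypsin and chymotrypsin. Each protease was used at 11 concentrations in a threefold dilution series plus a no-protease condition. K50 was inferred by Bayesian fitting of sequencing counts, and dG unfold was derived against a sequence-predicted unfolded-state K50 (Tsuboyama et al. method). Sequences shown include variable-length N-terminal GS-type padding (SAGGSAGG...) inside a display construct carrying a PA tag. Rows were kept only if the AF2 dimer inter-PAE was >15, to exclude likely homo-oligomers.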

| Sequence | folding stability dG unfold [1] [kcal/mol] | folding stability dG unfold [2] [kcal/mol] |
| --- | --- | --- |
| SAGGSAGGSSAEEIAKELGYKEIEVKPLRPVSTETLDSGGYSQKTEYVTTIKLPDGTEIEIPVSAGGSAGGS [r12_221_JUSTAS] | 0.275 ± 0.051 | 0.788 ± 0.025 |
| SAGGSAGGSSSPEEIKAEFKKKGYPKVEVKPVTPDTYLVTVTSPGTGKTTEYPITGSPSGKGLSAGGSAGGS [r12_170_JUSTAS] | < -1 | -0.822 ± 0.35 |
| SAGGSAGGSSVLRVTVEIPETGETVELTVPPSVTEEDVRARIEAEGHAIEKIEVTESEVPPLASAGGSAGGS [r12_955_JUSTAS] | < -1 | -0.358 ± 0.096 |
| SAGGSAGGSVKELAKKLNIKEVKVEPVDGEKVTLIKIKVKNKKTKKEYEKTILIKDKKTGKILSAGGSAGGS [r12_133_TrROS_Hall] | -0.845 ± 0.38 | -0.405 ± 0.23 |
| SAGGSAGGSWPFRIEIYNPENGKEEVKDIPGDLDELKDLIPPGYRVKIEFGDEEITIPIDDIKSAGGSAGGS [r20_36_TrROS] | -0.587 ± 0.27 | -0.331 ± 0.16 |
| SAGGSAGSMSIEEVVEKAKEEGIEVEVTSLPESGLTVVTITKKLPNGEVVESIILEHPEGTTTVLSSAGGSA [r15_1051_JUSTAS] | 0.0134 ± 0.14 | 0.644 ± 0.057 |
| SAGGSAIKITKVEYEPNPDGWREIHFKATPGDPDFLDEIAEALPPDNIEPTEVDEKGYYEIRIPRPSAGGSA [r15_386_TrROS] | -0.291 ± 0.17 | 0.0955 ± 0.058 |
| SAGGSALIVLEGDLDSVVALAKEAGDPNVKVEPVADFNDDPSEPRLYRITIERDGEPDGELLFLDPSAGGSA [r15_428_TrMRF] | < -1 | -0.0896 ± 0.1 |
| SAGGSAMIRTFNIKFPGKSEEEALEAIKNLPEEVTEKIEEVKVEEIKKEGDSIYVKLTIKVPKEILSAGGSA [r15_244_JUSTAS] | 0.00147 ± 0.51 | 0.636 ± 0.19 |
| SAGGSANTIMIPFDDLTPDKILEAAEESPDPIMIHNPDNGRFLTVEVEDGGIDDVTWEPFDPEDFGSAGGSA [r15_751_TrROS] | -0.135 ± 0.18 | 0.499 ± 0.042 |
| SAGGSAPNEEITIPIRIRVENPEDGKPIHEIPIPIKVPKGQTQDQILDQAKNWMEEHGMKIKEIEISAGGSA [r15_195_TrROS] | < -1 | -1.32 ± 0.86 |
| SAGGSASIDELKEEILAKTPPDVVTTGYATSSDSLSTRTYSTPAGHRVVISYTDNEIKSVSLEKAGSAGGSA [r15_175_JUSTAS] | -0.138 ± 0.22 | 0.333 ± 0.16 |
| SAGGSASVPPGKSVTLRISFPETGEERTITLDVKSSEELEAAAELEVPRPDGTPVPVTVSVVETVPSAGGSA [r15_797_JUSTAS] | 0.085 ± 0.24 | 0.386 ± 0.094 |
| SAGGSAVPPSANVGPLKEKIEVTEDPEKGTKTYTRVLKDPATGKTIVETSVIPPDGSVTLVKTVLVSAGGSA [r15_146_JUSTAS] | -0.307 ± 0.12 | -0.0156 ± 0.073 |
| SAGGSDYVGRVQIDKVDPEDPGQVRINLEWWQPNGKAIPIEHTIPNEQLKNNPPDATIEFKMEPPPSAGGSA [r2_128_TrROS] | < -1 | -0.514 ± 0.32 |
| SAGGSEVRELAEAIAAARGLPLRAIETKEVTPDTVEITMELPDDRTLTVTVPRSPEGGYEVTVTEDASAGGS [r8_284_JUSTAS] | < -1 | -0.349 ± 0.26 |
| SAGGSMIEVEIENPDPSVSPEEIAERVIRELTPDGGPLQPLEIKPTLVGDKPVYKIKIYIPDPELIKESAGG [r13_979_JUSTAS] | < -1 | -0.519 ± 0.2 |
| SAGGSMPITVSVPVPPDVPLEEVAERIEKELREAGIEADVREVTRVPGEGRILLHFDAGKTGVIPASAGGSA [r2_242_JUSTAS] | < -1 | -0.251 ± 0.12 |
| SAGGSPKPIAEAILKELGYPDAIVKNIPIEKLENGIIIIPLEVIYPKNPKKGKPIKRIIKPNEKFASAGGSA [r2_137_TrMRF] | < -1 | 0.108 ± 0.095 |
| SAGGSSMEELIKAVLEAAEAGKKAVNVKMPLPDGGEIEILDGGVIRIIPPDGVPLEEKIPVSELILSAGGSA [r2_97_JUSTAS] | < -1 | 0.442 ± 0.044 |
